Results: patent US20040214993A1

Tests used:
[1] = biological target: TNF receptors on WEHI-164 cells (mouse); assay: radioreceptor assay, cold TNF 0 ng/tube
[2] = biological target: TNF receptors on WEHI-164 cells (mouse); assay: radioreceptor assay, cold TNF 10 ng/tube
[3] = biological target: TNF receptors on WEHI-164 cells (mouse); assay: radioreceptor assay, cold TNF 1,000 ng/tube
[4] = biological target: TNF receptors on WEHI-164 cells (mouse); assay: radioreceptor assay, cold TNF 10,000 ng/tube
[5] = biological target: TNF receptors on WEHI-164 cells (mouse); assay: radioreceptor assay, cold TNF 500 ng/tube
[6] = biological target: TNF receptors on WEHI-164 cells (mouse); assay: radioreceptor assay, cold TNF 100 ng/tube
[7] = biological target: TNF receptors on WEHI-164 cells (mouse); assay: radioreceptor assay, cold TNF 5,000 ng/tube
[8] = biological target: TNF receptors on WEHI-164 cells (mouse); assay: radioreceptor assay, cold TNF 1 ng/tube

Sequence of TNF receptors on WEHI-164 cells (mouse) (P25118 30-454): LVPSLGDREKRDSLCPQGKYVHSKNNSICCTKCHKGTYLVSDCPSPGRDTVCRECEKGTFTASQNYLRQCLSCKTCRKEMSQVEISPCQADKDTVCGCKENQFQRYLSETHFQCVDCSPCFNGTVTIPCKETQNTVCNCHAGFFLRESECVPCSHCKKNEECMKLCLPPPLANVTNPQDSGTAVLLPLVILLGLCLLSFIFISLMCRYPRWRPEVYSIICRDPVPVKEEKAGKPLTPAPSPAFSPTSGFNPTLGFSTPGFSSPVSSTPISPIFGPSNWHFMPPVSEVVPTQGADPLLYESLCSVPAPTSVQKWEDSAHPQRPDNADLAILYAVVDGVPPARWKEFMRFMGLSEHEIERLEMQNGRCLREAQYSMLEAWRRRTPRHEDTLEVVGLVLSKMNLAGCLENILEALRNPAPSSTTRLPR

Work on “human recombinant TNF alpha (from UniProt P01375 1-233) (ligand)” yielded a % SPECIFIC BINDING (of 125I TNF to WEHI-164 cells) [1] of 100%, a % SPECIFIC BINDING (of 125I TNF to WEHI-164 cells) [2] of 64% and a % SPECIFIC BINDING (of 125I TNF to WEHI-164 cells) [3] of 0%. For the same substance, the % SPECIFIC BINDING (of 125I TNF to WEHI-164 cells) [4] was 0%, the % SPECIFIC BINDING (of 125I TNF to WEHI-164 cells) [5] was 10% and the % SPECIFIC BINDING (of 125I TNF to WEHI-164 cells) [6] was 11%. The % SPECIFIC BINDING (of 125I TNF to WEHI-164 cells) [7] was 0% and the % SPECIFIC BINDING (of 125I TNF to WEHI-164 cells) [8] was 108%.
